The text below walks through data of IntAct's records for PubMed 10801818.

The labels stand for the following.
B1: Zyxin (Homo sapiens), Q15942 (parent)
chain: MAAPRPSPAISVSVSAPAFYAPQKKFGPVVAPKPKVNPFRPGDSEPPPAPGAQRAQMGRVGEIPPPPPEDFPLPPPPLAGDGDDAEGALGGAFPPPPPPIEESFPPAPLEEEIFPSPPPPPEEEGGPEAPIPPPPQPREKVSSIDLEIDSLSSLLDDMTKNDPFKARVSSGYVPPPVATPFSSKSSTKPAAGGTAPLPPWKSPSSSQPLPQVPAPAQSQTQFHVQPQPQPKPQVQLHVQSQTQPVSLANTQPRGPPASSPAPAPKFSPVTPKFTPVASKFSPGAPGGSGSQPNQKLGHPEALSAGTGSPQPPSFTYAQQREKPRVQEKQHPVPPPAQNQNQVRSPGAPGPLTLKEVEELEQLTQQLMQDMEHPQRQNVAVNELCGRCHQPLARAQPAVRALGQLFHIACFTCHQCAQQLQGQQFYSLEGAPYCEGCYTDTLEKCNTCGEPITDRMLRATGKAYHPHCFTCVVCARPLEGTSFIVDQANRPHCVPDYHKQYAPRCSVCSEPIMPEPGRDETVRVVALDKNFHMKCYKCEDCGKPLSIEADDNGCFPLDGHVLCRKCHTARAQT

In one assay the parent is B1. To be noted: with enah_human ENAH.
As to F71A, the “effect of a mutation on the interaction” value is listed as “decreasing interaction”.
On the same count and under the same terms, the result for F71A;F93A reads “decreasing interaction”; that for F71A;F93A;F104A, “decreasing interaction”; that for F93A, “decreasing interaction”.

Variants of B1 are the subject of a further assay. To be noted: with enah_mouse Enah.
Consider F71A, for which the “effect of a mutation on the interaction” value was “disrupting interaction”.
